From PMC7513893 (Redox Biology, 2020)

Assays:
[1] = target: ADAM17 cytoplasmic domain mutant F730A (ADAM17cyto^F730A), recombinant (UniProt P78536 693-824, F730A); assay: ELISA
[2] = target: ADAM17 cytoplasmic domain, wild type (ADAM17cyto^WT), recombinant (UniProt P78536 693-824); assay: ELISA
Chain of ADAM17 cytoplasmic domain, wild type (ADAM17cyto^WT), recombinant (P78536 693-824): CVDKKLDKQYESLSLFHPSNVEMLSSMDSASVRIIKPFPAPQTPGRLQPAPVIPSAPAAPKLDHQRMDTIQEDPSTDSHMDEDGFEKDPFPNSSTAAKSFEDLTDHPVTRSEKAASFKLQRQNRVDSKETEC

Chain of ADAM17 cytoplasmic domain mutant F730A (ADAM17cyto^F730A), recombinant (P78536 693-824 F730A): as the sequence (P78536 693-824) above, with F38A counted along it

binding result [1]: binds
binding result [2]: binds
B1: Thioredoxin-1 (Trx-1), recombinant (enzyme, human, UniProt P10599 1-105, looked up)
chain: MVKQIESKTAFQEALDAAGDKLVVVDFSATWCGPCKMIKPFFHSLSEKYSNVIFLEVDVDDCQDVASECEVKCMPTFQFFKKGQKVGEFSGANKEKLEATINELV
